# T1: recombinant human C5a, P01031
# T1 chain: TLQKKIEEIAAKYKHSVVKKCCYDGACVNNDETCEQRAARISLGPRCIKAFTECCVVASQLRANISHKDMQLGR
# T2: purified human fibrinogen, depleted of fibronectin and plasminogen, P02671
# T2 chain 1: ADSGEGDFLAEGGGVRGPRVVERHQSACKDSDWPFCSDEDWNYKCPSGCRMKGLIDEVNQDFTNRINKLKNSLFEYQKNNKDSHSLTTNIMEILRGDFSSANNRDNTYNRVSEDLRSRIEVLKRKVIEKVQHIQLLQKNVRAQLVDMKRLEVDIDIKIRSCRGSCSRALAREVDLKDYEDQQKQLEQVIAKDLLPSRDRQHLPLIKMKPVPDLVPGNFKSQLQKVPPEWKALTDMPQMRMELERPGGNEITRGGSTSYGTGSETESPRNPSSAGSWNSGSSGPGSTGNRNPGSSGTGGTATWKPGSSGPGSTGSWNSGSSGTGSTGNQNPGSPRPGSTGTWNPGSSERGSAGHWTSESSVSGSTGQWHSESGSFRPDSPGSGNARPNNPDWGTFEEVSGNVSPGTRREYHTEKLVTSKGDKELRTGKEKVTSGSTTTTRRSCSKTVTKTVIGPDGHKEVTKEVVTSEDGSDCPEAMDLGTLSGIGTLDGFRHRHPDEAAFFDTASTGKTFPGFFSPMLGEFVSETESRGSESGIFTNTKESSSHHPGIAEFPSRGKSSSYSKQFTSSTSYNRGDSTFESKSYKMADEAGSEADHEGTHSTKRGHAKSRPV
# T2 chain 2: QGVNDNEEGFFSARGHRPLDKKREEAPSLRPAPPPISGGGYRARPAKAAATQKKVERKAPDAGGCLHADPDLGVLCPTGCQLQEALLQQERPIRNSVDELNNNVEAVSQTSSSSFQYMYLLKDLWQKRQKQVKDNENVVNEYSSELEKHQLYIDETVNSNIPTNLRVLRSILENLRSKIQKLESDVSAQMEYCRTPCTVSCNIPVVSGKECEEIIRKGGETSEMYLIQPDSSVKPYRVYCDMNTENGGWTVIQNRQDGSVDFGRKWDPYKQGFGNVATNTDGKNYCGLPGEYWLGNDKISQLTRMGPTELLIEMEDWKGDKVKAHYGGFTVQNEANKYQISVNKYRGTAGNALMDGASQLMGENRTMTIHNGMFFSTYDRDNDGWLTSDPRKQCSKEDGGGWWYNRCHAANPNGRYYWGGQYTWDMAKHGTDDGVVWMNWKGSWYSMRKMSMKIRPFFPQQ
# T2 chain 3: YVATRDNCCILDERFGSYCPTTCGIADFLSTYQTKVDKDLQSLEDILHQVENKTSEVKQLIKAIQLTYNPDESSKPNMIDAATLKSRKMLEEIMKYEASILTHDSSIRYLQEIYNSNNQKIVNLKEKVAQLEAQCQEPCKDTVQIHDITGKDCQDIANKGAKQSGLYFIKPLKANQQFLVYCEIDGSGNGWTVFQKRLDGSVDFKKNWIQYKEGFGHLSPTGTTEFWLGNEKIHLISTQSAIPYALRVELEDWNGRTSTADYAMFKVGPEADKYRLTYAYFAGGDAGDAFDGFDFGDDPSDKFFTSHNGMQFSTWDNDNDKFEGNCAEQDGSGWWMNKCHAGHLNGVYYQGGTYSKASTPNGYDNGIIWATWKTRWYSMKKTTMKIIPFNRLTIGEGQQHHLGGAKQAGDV
# Tests used:
# [1] = molecular target: T1, recombinant human C5a, P01031
# [2] = molecular target: purified complement component C3
# [3] = molecular target: purified human fibronectin, P02751
# purified human fibronectin, P02751, sequence (P02751 other isoform, or with tags, fused parts or gaps): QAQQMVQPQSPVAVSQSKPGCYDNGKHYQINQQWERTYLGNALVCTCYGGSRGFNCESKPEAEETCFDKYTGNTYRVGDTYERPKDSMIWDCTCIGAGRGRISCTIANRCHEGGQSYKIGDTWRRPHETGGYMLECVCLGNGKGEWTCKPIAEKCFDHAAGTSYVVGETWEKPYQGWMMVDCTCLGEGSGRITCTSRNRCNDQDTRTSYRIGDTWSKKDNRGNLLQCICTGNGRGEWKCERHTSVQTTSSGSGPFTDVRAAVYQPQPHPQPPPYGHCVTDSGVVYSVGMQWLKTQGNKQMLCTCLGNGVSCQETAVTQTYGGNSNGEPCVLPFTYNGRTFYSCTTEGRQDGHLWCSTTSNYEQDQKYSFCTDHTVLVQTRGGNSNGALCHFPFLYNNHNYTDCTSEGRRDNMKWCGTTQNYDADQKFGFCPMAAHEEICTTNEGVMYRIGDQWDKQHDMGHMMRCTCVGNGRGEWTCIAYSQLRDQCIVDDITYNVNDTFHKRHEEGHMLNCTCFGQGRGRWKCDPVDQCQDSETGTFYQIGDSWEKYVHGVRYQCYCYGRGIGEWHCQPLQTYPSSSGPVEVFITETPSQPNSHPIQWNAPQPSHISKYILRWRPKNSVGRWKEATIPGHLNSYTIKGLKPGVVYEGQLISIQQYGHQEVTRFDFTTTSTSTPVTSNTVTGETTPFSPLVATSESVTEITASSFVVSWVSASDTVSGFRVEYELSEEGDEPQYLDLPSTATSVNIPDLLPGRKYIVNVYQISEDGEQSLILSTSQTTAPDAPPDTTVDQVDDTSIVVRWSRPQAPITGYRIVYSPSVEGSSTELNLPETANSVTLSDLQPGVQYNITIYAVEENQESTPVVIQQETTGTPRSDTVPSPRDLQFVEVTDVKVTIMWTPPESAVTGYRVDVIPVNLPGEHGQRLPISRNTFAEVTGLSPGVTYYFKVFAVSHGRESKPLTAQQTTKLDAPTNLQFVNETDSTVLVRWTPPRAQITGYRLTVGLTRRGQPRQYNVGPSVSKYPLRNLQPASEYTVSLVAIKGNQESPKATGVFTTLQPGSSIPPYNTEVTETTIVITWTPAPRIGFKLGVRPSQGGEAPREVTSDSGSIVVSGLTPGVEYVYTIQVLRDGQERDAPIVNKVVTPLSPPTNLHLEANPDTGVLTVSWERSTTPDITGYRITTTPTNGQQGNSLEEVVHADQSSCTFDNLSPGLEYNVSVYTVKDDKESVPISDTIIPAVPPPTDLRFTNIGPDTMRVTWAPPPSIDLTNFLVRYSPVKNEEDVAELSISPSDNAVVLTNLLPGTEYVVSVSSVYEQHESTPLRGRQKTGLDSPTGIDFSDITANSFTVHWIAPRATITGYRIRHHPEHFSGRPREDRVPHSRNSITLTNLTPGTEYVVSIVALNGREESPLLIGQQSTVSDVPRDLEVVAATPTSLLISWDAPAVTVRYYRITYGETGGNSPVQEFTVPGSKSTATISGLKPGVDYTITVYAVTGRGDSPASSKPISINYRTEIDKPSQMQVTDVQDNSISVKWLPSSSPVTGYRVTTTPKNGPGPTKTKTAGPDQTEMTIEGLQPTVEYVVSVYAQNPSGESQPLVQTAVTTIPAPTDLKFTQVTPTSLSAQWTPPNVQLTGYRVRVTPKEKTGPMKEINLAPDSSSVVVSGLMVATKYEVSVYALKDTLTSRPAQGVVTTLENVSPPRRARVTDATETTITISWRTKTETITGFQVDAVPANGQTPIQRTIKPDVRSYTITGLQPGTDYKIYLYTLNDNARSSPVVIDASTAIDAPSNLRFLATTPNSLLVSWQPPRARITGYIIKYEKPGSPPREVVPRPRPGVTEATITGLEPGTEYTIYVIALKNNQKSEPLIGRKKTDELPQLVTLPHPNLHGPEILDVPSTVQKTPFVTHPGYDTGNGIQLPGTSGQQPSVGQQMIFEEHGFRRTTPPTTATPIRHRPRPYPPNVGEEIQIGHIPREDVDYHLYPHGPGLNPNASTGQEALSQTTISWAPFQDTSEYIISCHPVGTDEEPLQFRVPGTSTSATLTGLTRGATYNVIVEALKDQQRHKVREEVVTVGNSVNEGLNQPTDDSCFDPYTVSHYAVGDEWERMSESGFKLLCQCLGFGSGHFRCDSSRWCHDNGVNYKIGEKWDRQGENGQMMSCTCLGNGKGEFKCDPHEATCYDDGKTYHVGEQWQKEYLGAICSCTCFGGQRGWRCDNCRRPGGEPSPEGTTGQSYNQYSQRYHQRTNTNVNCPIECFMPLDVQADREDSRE
# [4] = molecular target: T2, purified human fibrinogen, depleted of …
protein,measurement,setting,value
CspA on whole cells of GBS strain COH1 (compared with the cspA mutant TOH121) (protein) DSVINKPSDIAVEQQVKDSPTSIANETPTNNTSSALASTAQDNLVTKANNNSPTETQPVTEPHSQATETFSPAANQPVESTQEVSKTPLTKQNLAVKPTPAISKETPQNIDSNKIITVPKVWNTGYKGEGTVVAIIDSGLDTNHDALQLNDSTKAKYQNEQQMNAAKAKAGINYGKWYNNKVIFGHNYVDVNTELKEVKSTSHGMHVTSIATANPSKKDTNELIYGVAPEAQVMFMRVFSDEKRGTGPALYVKAIEDAVKLGADSINLSLGGANGSLVNADDRLIKALEMARLAGVSVVIAAGNDGTFGSGASKPSALYPDYGLVGSPSTAREAISVASYNNTTLVNKVFNIIGLENNKNLNNGLAAYADPKVSDKTFEVGKQYDYVFVGKGNDNDYKDKTLNGKIALIERGDITFTKKVVNAINHGAVGAIIFNNKAGEANLTMSLDPEASAIPAIFTQKEFGDVLAKNNYKIVFNNIKNKQANPNAGVLSDFSSWGLTADGQLKPDLSAPGGSIYAAINDNEYDMMSGTSMASPHVAGATALVKQYLLKEHPELKKGDIERTVKYLLMSTAKAHLNKDTGAYTSPRQQGAGIIDVAAAVQTGLYLTGGENNYGSVTLGNIKDKISFDVTVHNINKVAKDLHYTTYLNTDQVKDGFVTLAPQQLGTFTGKTIRIEPGQTKTITIDIDVSKYHDMLKKVMPNGYFLEGYVRFTDPVDGGEVLSIPYVGFKGEFQNLEVLEKSIYKLVANKEKGFYFQPKQTNEVPGSEDYTALMTTSSEPIYSTDGTSPIQLKALGSYKSIDGKWILQLEQKGQPHLAISPNDDQNQDAVALKGVFLRNFNNLRAKVYRADDVNLQKPLWVSAPQAGDKNYYSGNTENPKSTFLYDTEWKGTTTDGIPLEDGKYKYVLTYYSDVPGSKPQQMVFDITLDRQAPTLTTATYDKDRRIFKARPAVEHGESGIFREQVFYLKKDKDGHYNSVLRQKGEDGILVEDNKVFIKQEKDGSFILPKEVNDFSHVYYTVEDYAGNLVSAKLEDLINIGNKNGLVNVKVFSPELNSNVDIDFSYSVKDDKGNVIKKQHHGKDLNLLKLPFGTYTFDLFLYDEERANLISPQSVTVTISEKDSLKDVLFKVNLLKKAALLVEFDKLLPKGATVQLVTKTNTVVDLPKATYSPTDYGKNIPVGDYRLNVTLPSGYSTLENLDDLLVSVKEGQVNLTKLTLINKAPLINALAEQTDIISQPVFYNAGTHLKNNYLANLEKAQTLIKNRVEQTSIDNAIAALRESRQALNGKETDTSLLAKAILAETEIKGNYQFVNASPLSQSTYINQVQLAKNLLQKPNVTQSEVDKALENLDIAKNQLNGHETDYSGLHHMIIKANVLKQTSSKYQNASQFAKENYNNLIKKAELLLSNRQATQAQVEELLNQIKATEQELDGRDRVSSAENYSQSLNDNDSLNTTPINPPNQPQALIFKKGMTKESEVAQKRVLGVTSQTDNQKIKTNKLPKTGESTPKITYTILLFSLSMLGLATIKLKSIKRE,C5a protease activity (C5a-stimulated PMN adherence to gelatin-coated plastic after preincubating C5a with GBS),[1],inactivation of CspA did not appear to have a detectable effect on C5a activity
same,degradation of the test substrate (Coomassie-stained SDS-PAGE or Western blotting),[2],No difference in the cleavage of the test substrates was observed for all substrates except fibrinogen when the mutant and wild-type strains were compared
same,degradation of the test substrate (Coomassie-stained SDS-PAGE or Western blotting),[3],No difference in the cleavage of the test substrates was observed for all substrates except fibrinogen when the mutant and wild-type strains were compared
same,fibrinogen degradation assay (SDS-PAGE of supernatant after 16 h with whole GBS),[4],"COH1 cleaved the minor species (corresponding to the lower band of the doublet) of the α subunit, while the mutant did not cleave fibrinogen under the conditions employed"
